Data reported in patent US20160208005A1 (Astellas, published 2016).

How the values were obtained:
human TSLP receptor [1] = biological target: T1, human TSLP receptor (human, UniProt Q9HC73 23-371); test: cell-based or functional assay
T1 sequence (looked up): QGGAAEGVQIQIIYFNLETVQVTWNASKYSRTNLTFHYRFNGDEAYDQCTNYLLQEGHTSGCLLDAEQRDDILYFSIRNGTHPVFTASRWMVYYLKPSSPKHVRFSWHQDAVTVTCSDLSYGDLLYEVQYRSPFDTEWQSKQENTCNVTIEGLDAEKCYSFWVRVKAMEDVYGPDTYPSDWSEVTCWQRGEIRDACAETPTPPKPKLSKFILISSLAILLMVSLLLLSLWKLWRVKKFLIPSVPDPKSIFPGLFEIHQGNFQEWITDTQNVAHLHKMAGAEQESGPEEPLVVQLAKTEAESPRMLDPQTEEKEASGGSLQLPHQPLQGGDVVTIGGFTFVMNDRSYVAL

[2] = biological target: T2, human TSLP receptor-mouse Fc fusion protein (human (receptor part), mouse (Fc part)); test: SPR (Biacore 2000), antibody captured on CM5 chip by Human Antibody Capture Kit, human TSLP receptor-mouse Fc as analyte
T2 construct: Expressed in FreeStyle 293 cells and purified on Protein G; also called fusion protein of human TSLP receptor and mouse Fc
T2 chain: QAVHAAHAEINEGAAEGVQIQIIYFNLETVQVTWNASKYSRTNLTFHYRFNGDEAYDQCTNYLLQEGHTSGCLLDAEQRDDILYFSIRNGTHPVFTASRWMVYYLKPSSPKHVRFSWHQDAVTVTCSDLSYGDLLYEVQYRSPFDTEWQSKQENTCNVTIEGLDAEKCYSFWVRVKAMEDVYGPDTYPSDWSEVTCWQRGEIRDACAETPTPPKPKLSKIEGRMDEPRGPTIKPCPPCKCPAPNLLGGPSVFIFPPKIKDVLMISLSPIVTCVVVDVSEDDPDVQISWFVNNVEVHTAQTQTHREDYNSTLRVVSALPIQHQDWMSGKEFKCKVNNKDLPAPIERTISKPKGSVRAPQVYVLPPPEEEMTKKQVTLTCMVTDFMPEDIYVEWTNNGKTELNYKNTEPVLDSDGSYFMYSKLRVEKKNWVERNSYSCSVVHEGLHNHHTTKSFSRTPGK
Description: (§1) In the SPR analysis, the analysis was performed using Biacore (registered trademark) 2000 (GE Healthcare Japan Corporation). Respective anti-human TSLP receptor antibodies were immobilized on the surface of a sensor chip CM5 using a Human Antibody Capture Kit and an Amine Coupling Kit (GE Healthcare Japan Corporation). The human TSLP receptor-mouse Fc fusion protein obtained in Example 1 was serially diluted with an HBS-EP solution (GE Healthcare Japan Corporation), and 100 μL of the solution was added to the flow path at a flow rate of 50 μL/min. By this measurement system, binding rate constant (ka), dissociation rate constant (kd), and dissociation constant (KD) of the human TSLP receptor-mouse Fc fusion protein and the anti-human TSLP receptor antibody were calculated using data analysis software (BIA Evaluation) (Table 1).

[3] = biological target: T2, human TSLP receptor-mouse Fc fusion …; test: SPR (Biacore 2000), antibody captured, human TSLP receptor-mouse Fc as analyte; reference TSLPR-012_141
Description: as §1

human TSLP receptor [4] = biological target: T1, human TSLP receptor; test: cell-based or functional assay; remark: listed apart in the source

- IC50 (ng/mL); TSLP-induced MDC proteins production inhibition using human PBMC (5 ng/mL human TSLP mutant-Flag protein) (human TSLP receptor [1]): 0.12 ng/mL
- Kd [2]: 4.1 nM
- koff [2]: 0.000125 s⁻¹
- fold binding activity compared to TSLPR-012_141 [3]: ~3 fold
- fold inhibition activity against TSLP-induced MDC proteins production compared to TSLPR-012_141 (human TSLP receptor [4]): ~9 fold
- fold inhibition activity against human TSLP-induced TARC mRNA expression compared to TSLPR-012_141 (human TSLP receptor [4]): ~12 fold
B1: fully human T7-27 (antibody, human IgG1, kappa, V domains shown)
VH: EVQLLESGGGLVQPGGSLRLSCAASGFTFRSSAMHWVRQAPGKGLKWVSSVSGSGAGTYYADSVKGRFTISRDNPKNTLYLQMNSLRAEDTAVYYCVKEGGSRGFDYWGQGTLVTVSS
VL: DIQMTQSPSSLSASVGDRVTITCRASQDISNYLAWFQQKPGKAPKSLIYTASSLQSGVPSKFSGSGSGTDFTLTISSLQPEDFATYYCQQYNLYPPTFGQGTKVEIKR
modifications: deletion of lysine of the heavy chain C terminal occurred in a large part of the purified antibody
notes: Human IgG1/kappa; Expressed in FreeStyle 293 or CHO-K1SV cells; also called fully human antibody of T7-27
